This data set is described as follows: soluble fraction after stress (log2 fold change); higher = more stays soluble; pooled small domains, quantitative proteomics. The following applies: stress: 50 degC. Put shortly:
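The stress applied to every library was 50°C. These custom libraries of small protein domains were pooled and measured at high throughput with quantitative proteomics as the read-out. Aggregation propensity is expressed as the base-two logarithm of the fold change in how much of each protein remains soluble. The higher the value, the more of that protein stays in solution.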
Consider “HMGTNTTGWIKIADDWKYIDSNGEYTVNDWRQSADGGWYYLGYNGNMLKNQTTPDGYYVDAEGLWDGMSPA”, for which the “soluble fraction (log2)” value is -0.709. Consider “HMKVSRTAVKLHHANAVEVAKKLQPLFVVGDVQIEPVKDAGIILLKGPASTLADLRESIVQMDHTA”, for which the “soluble fraction (log2)” value is -0.0461.

In the case of “HMTFENMFIENSGETLDREFLVENLRGISWQSYDRSVDVLVSRLRGKLGETPNNTRFIKTIHGVGYKFIGE”, the “soluble fraction (log2)” value is -0.316. With “HMNLSSETLSEMEARIGQMGVVELQDRRAYLLQEQEGTQNPSRLKEIADELSAIQKALVALV”, the “soluble fraction (log2)” value amounted to 0.1. Consider “HMSVFTDIYHQADHETKLMLIHEIKIVGDEKEFRLLKSIIDSTSNDLSKEANDALNAIKIRLALSK”, for which the “soluble fraction (log2)” value is -2.49. To “HMANTLDPMDLKQIISLHLDGFSNRKIGATLGISRNTVNTYMRLFSVSDYALKELLTLDNATLDKLFPS” belongs -2.01; to “HMDIKKHISATLKREMEKRGLNFMEFSTELGIPRTTLQGYLKGTSSPQADSLEELADKLGISPAELVSG”, 0.15; to “HMDKLEKRILDYLLQKSAIDGSTILKISHREMAMDLGTAREVVTRILKKLETGGFVRQGENYLEILK”, -0.145. “HMKIYDQVVDRIKDRISKGDMPQGSALPPERQLIDELNVSRSSLREGFRILEMMGLIESIPGKGRFVRTSR”: the “soluble fraction (log2)” value is -0.235.

As for “HMAIGDYYINASALNVRSGEGTNYRIIGALPQGQKVQVISENSGWSKINYNGQTGYIGTRYLSKTPV”, the “soluble fraction (log2)” value was -0.00322.

On to “HMGTELSYSEFLNKVEAGEVTNVTIRGPEITFQTGNSSYTTYAPDDPKLIEHLTAKGVAIKAGP”, for which the “soluble fraction (log2)” value is 0.216. As for “HMKIIDDIQEFAGVTKTQNTFFHIFNHLHQNGKQLILTSDRAPVMLQGMEERLLTRFKWGLVAELE”, the “soluble fraction (log2)” value turned out to be 0.257. For “HMRDYDFGNLLYKLRIESGYTQKDIADMLGVTDKAVSKWENGIAKPTTNNIKLLSTIYNVSVEELLNG”, the “soluble fraction (log2)” value was -0.254.

Regarding “HMGQAELPYSEFLREVNNGQVKSVIIEGSEITGFYKTSGTSFNVIAPDDPKLVERLMAQGVEVRAQPA”, the “soluble fraction (log2)” value came out at 0.0327. For “HMTIGKRIKRRRIELKMSIDSLARTIGKDRSTVYRYESGAIDKVSSDVLAKLATALNTTPAYLIGL”, the “soluble fraction (log2)” value was -3.27. Take “HMPELTERELEVLLLTARGLPSSEAARLLFITRRTVAAHLTSIYGKLGARNKTEAVLAALKRGIIMLDQIG”: the “soluble fraction (log2)” value was -4.

As for “HMVDITPDLIRTLLERFGEYGVTKEHIEARIQRHIESILPAQVVQLRKTYNSLKDGMSQPSDWFDI”, the “soluble fraction (log2)” value was -1.26. With “HMRIWTISDLYKNVEDKKVSLAVFSEDNDSNKVNVLDINGEEHSVNLLKADLPTLVDLFRKNDVRFAVRSN”, the “soluble fraction (log2)” value came out at 0.12. In the case of “HMGAARVTPLYNLRLREGPSTATARLDVVPRGTTLEVRAWDETGDWAQVEYRGQIGWIAAWLAEVEGEAP”, the “soluble fraction (log2)” value was -0.136. As to “HMEEHSLRKQEMLRIIEALEQLTPKEKTVVVLYYFKGVLFKDIAMLLDVTEGRISQLHTAAMGRLKKLMD”, the “soluble fraction (log2)” value was -0.0471. For “HMGGYLIGDVAQMVGLSRDALRFYEKKGIIRADKKENGYRYYSEDDIYRLMYILYHRKMNTSLEEIGGLMS”, the “soluble fraction (log2)” value is -0.739. With “HMEDTFEYPVSVNGKLRFKIELPVSMEKDEIRNIVLNDERAKKWLATGTLTNLIVVPNRIINIVIK”, the “soluble fraction (log2)” value was -0.124.

“HMAPVVAILTRQLPLPQAQQLAGQTALVRVVKGGPGNEAELEFAGQNIQVKLPPGRQLTAGEMVTVAFALS”: the “soluble fraction (log2)” value is 0.0876. For “HMRYLMPDLVNRRYEPVRSLLEARGIRFGNVIFEPYEGLPPGIVLRQDPPAGHPLPRRRTVSLVVSGPGGR” the value was -1.88; for “HMTYKPAADFKPSDTSSLKEGMKVEHPKFGFGTVMKMEEVGTERKARINFADFGEKTLLLSFAKLKIHEN”, 0.0858; for “HMKPLAQQVNDYLAATRTSIATLANEIPGYSRPTISRYLAGKYDGDITTIEKLLAEWLAQRTG”, -0.354. Regarding “HMFQNPSQVVTTRVGELRAAIPTAQQGRITMGVAVVEDANSVRSVLISTSEPRGYLRPGVTLGPGETMV”, the “soluble fraction (log2)” value was 0.0203.

As for “HMKGSPFSQLPKEKKKRILQAAIEVFAQNDYKHASTDEIASRAGISKGLLFYYFHDKKTLYFYLGEYLKR”, the “soluble fraction (log2)” value is -0.0373. “HMGGNKILTWKTDAATTRNQVPINERKEGLEISYKNEERNWVAEKYVGTSFSDDKWGVDYNWNQD”: the “soluble fraction (log2)” value is 0.421. As to “HMRNMTDYLTIVRAVYGGLSQRQAATTYHVSRNTVSLLIRHAKNQGWLTVEDLSRADAAAFSPA”, the “soluble fraction (log2)” value was -0.517. In the case of “HMIDAHTTLLAKRLESKGFLALTDKSSAEEIYEEFGISKKAFKKALGALYKERLVRIGEDGVVWM”, the “soluble fraction (log2)” value is -1.43. Regarding “HMDSDELEAFRLITSVNGVGPKLGIAILSEFTAEKLTVFIASGDAKALTAASGVGIKLAQRIVLELKDKVG”, the “soluble fraction (log2)” value is -0.199. As for “HMINKQPKDYEYFLEKWHFTQTEKHQLHNLILKLNIRYPNKDFLKITENLDNGKLVLKKLEERLSKT”, the “soluble fraction (log2)” value is -1.05. To “HMEGLATRLRFLRQARGLSYHALARLSGVTHTALHQIEAGKNIPGLDTAEKIAMALDVDPRWFAYGRGDPS” belongs -1.31. To “HMSFDENEALRKALDVFWEKGYDGTSLSDLTEAMGINKPSLYATFGNKDQLFLKAIEMYENR” belongs -0.992. For “HMRPNREKDMADLEKLAPFLLQMLTNYAQMTGDEKPLNAFITRFGYAAQIRDIQDFFMGPWHPA”, the “soluble fraction (log2)” value was ≥ 0.62. As to “HMSDFSSNLRRLRKRAGLSQDALAEKLSVARQTVSSWERGNSYPDLDMLVRISDALATDPNELLYPN”, the “soluble fraction (log2)” value was -0.00275.

Consider “HMSDRLRPGDMVVVVGKKKRYPVFSAFDIDFVEAGDVGKVLTVKREEVVVGFPKKGEGTFTPSELNIAH”, for which the “soluble fraction (log2)” value was -0.597. Regarding “HMGRLPMNIVRAIVEHLDRHASYSEINRATGASKGFISKVAAAVEAASLTPEKFLLLNDEDIQNRITPGR”, the “soluble fraction (log2)” value is -0.234. With “HMIAGHLQIKNDYYYMVLSYTDSDGKRKQPWIPTGLPMKGNKKRAEKMLIETRQTYVPPVSSG”, the “soluble fraction (log2)” value was -3.27. Turning to “HMAAEFERKNGIVYFFHSSEKPHLNYPHVHARYGEDTISISLRDFTVIGSFSSKKKQKEAVEYVKNK”, the “soluble fraction (log2)” value was -0.662. Regarding “HMESPVNTLPEDQRAWYKALPPELSTKTAVEAGAGVGVSERTVKRLLSNQTFFINLQRGNYRKRH”, the “soluble fraction (log2)” value is 0.172. For “HMRVELVVVPELRQQLLPEARELANSAGLQLRVRGQSPADETRTIVVTQSPAAGTRVAARSIVLVE” the value was -0.539; for “HMKSEMYIDLSNALLKMSERDKELLTYRYTMEMSSKEISQITGIKESNVNSYIRRAREKLLKIFNAMNK”, -3.04. For “HMSQPYFELAAADMEALRNALSTIREIESVVLSGKIFHVEVREDLDPGTMNKLAFERGITLTHLVKKKN”, the “soluble fraction (log2)” value was -0.0763. Take “HMGPRPLPAEFTHPSLRALLALGTTRGGVTSADVKTALEAASVPAGRRAAVLRALDDNGIEVHTEP”: the “soluble fraction (log2)” value was 0.0376. With “HMQEAATSLNAKILAKLRENNGTLAVSDKSDPALISSLFGVSKGNFKKAIGALYKNGQIVIHADRIEL”, the “soluble fraction (log2)” value is -0.436. As to “HMRDTAKTLLAMEVVGENNKKNLQAFGIQKGDQNYQTAVVVRLMQKALMEGDTSAIRLIGELTGD”, the “soluble fraction (log2)” value was -0.197.

With “HMYEDIDSAYRILEINSTVSNQEIKNAYRRMAKKYHPDKVAHLGVEHQKGAEEKFKKVQEAYILIKKRRG”, the “soluble fraction (log2)” value is -0.557. “HMSVTYRYSYVYNGNTYSDGWSVRRAIENNENKRFGPEPSDLDHEAQKQARVTFWAEHGVEYKEQEVV”: the “soluble fraction (log2)” value was -0.879.

Source of the values: the domain aggregation screens of Martell et al. (2025).
